What was measured:
[1] = target: mN2G^CH (N-terminal CH domains of nesprin-2G only) (mouse); assay: mass photometry
[2] = target: F-actin (actin filaments from rabbit skeletal muscle actin) (rabbit) (UniProt P68135); assay: single-molecule TIRF microscopy

Q: How did the stoichiometry N [1] turn out when “mN2G^CH (N-terminal CH domains of nesprin-2G only) (domain or fragment)” was run?
A: 2

Q: What about the fold residence time on F-actin against utrophin [2] of the same substance?
A: > 2 fold
